The results in this text go back to patent EP4596580A1 (Staidson (Beijing) Biopharmaceuticals Co., Ltd., dated 2025).

Experiment [1] addresses T1, His-human LIGHT (human).
T1 construct: also called His-huLIGHT; free LIGHT
T1 chain: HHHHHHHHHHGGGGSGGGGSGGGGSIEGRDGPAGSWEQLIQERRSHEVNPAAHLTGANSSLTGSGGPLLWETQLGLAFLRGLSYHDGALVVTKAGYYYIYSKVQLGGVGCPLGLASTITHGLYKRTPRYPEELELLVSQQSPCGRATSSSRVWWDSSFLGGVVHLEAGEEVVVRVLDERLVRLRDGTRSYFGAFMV
Briefly: ELISA, His-huLIGHT coated.

Experiment [2] deals with T2, hFc-human LIGHT (human).
T2 construct: also called hFc-huLIGHT
Briefly: competition ELISA, LTβR-His coated, hFc-huLIGHT 1 µg/ml. For orientation: An ELISA detects its analyte on a solid surface through an enzyme-linked reagent.

Experiment [3] concerns the target T1, His-human LIGHT. Briefly: cell-based or functional assay.
In experiment [4] the target is T1, His-human LIGHT. Briefly: cell-based or functional assay.
For experiment [5], the target named is T1, His-human LIGHT. Nature of the experiment: cell-based or functional assay.
Experiment [6] addresses T2, hFc-human LIGHT. Nature of the experiment: competition ELISA, LTβR-His coated, hFc-huLIGHT added.
Experiment [7] deals with T2, hFc-human LIGHT. Nature of the experiment: competition ELISA, HVEM-His coated, hFc-huLIGHT 1 µg/ml.
In experiment [8] the target is T3, His-cynomolgus monkey LIGHT (cynomolgus monkey).
T3 construct: also called His-cynoLIGHT
T3 chain: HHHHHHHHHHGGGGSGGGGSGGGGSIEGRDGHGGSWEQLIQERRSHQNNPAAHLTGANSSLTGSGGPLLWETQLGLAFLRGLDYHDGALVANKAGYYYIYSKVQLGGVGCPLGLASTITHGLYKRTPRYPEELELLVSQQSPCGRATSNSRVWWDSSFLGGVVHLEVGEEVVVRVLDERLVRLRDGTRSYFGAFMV
Nature of the experiment: ELISA, His-cynoLIGHT coated.

The target of experiment [9] is T1, His-human LIGHT. Briefly: cell-based or functional assay.
The target in experiment [10] is T4, LIGHT on the surface of HEK293-LIGHT stable cells (human, UniProt O43557 1-240). Briefly: cell-based or functional assay.
The target in experiment [11] is T1, His-human LIGHT. Nature of the experiment: cell-based or functional assay.
Experiment [12] concerns the target T1, His-human LIGHT. Nature of the experiment: cell-based or functional assay.
Experiment [13] deals with T1, His-human LIGHT. Nature of the experiment: ELISA, His-huLIGHT coated.
For experiment [14], the target named is T4, LIGHT on the surface of HEK293-LIGHT …. Briefly: cell-based or functional assay. The source holds these as a separate data set.
Experiment [15] concerns the target T2, hFc-human LIGHT. Nature of the experiment: competition ELISA, LTβR-His coated, hFc-huLIGHT added. This is another data set of the same source.
In experiment [16] the target is T3, His-cynomolgus monkey LIGHT. Nature of the experiment: ELISA, His-cynoLIGHT coated.
The target in another experiment is T5, His-mouse LIGHT (mouse).
T5 construct: also called His-musLIGHT
T5 chain: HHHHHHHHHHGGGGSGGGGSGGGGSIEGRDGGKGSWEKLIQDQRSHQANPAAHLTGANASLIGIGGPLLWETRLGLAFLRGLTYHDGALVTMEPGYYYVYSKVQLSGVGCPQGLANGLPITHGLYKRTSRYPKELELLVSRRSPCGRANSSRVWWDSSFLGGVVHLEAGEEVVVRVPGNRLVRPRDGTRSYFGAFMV
Nature of the experiment: ELISA, His-musLIGHT coated.

For experiment [17], the target named is T3, His-cynomolgus monkey LIGHT. Briefly: ELISA, His-cynoLIGHT coated.
The target in experiment [18] is T1, His-human LIGHT. Nature of the experiment: SPR, Biacore 8K, antibody on CM5 chip. A general note: In SPR one partner is held on a chip, and binding of the other changes the refractive index at the surface.

Read-outs that look alike come from different tables or passages of the source.

B1: LT-m37 (antibody, human IgG4, V domains shown)
VH: QVQLKQSGAELVRPGTSVKVSCKASGYSFTGYFINWVKQSHGKSLEWIGRIYPYNVNTFYNQNFKGRATLTADKSSSTAHMELLSLTSEDSAVYYCGRGTHYYGSSGAMDYWGQGTSVTVSS
VL: DILLTQSHKFMSTSVGDRVSITCKASQNVGTAVAWYQQKPGQSPKLLIYSASNRYTGVPDRFTGSGSGTDFTLTISNMQSEDLADYFCQQYSSYPYTFGGGTKLEIK
For the molecule B1, the half-maximal effective concentration (EC50) (usually the concentration that produces a half-maximal response) with His-human LIGHT [1] stood at 0.0774 µg/mL; in experiment [8], 157 pM. Moreover, the “IC50 ratio (IC50 of the antibody / IC50 of F19)” value with hFc-human LIGHT [2] is 0.301; with hFc-human LIGHT [7] it was 0.435. Besides, in the experiment with His-human LIGHT [3], the “IC50, HVEM NF-κB luciferase reporter (293T-HVEM-NF-κB-Luc), free LIGHT” value (from here on “IC50 … (293T-HVEM-NF-κB-Luc), free LIGHT”) stood at 0.264 µg/mL. Moreover, the “IC50, LIGHT induced MMP-9 production in BEAS-2B bronchial epithelial cells” value in the experiment with His-human LIGHT [4] was 0.359 µg/mL. In addition, the “IC50, HVEM NF-κB luciferase reporter, free LIGHT” value with His-human LIGHT [5] is 402 pM. Besides, the 50% inhibitory concentration (IC50) (usually the concentration that gives 50% inhibition) with hFc-human LIGHT [6] was 866 pM. For the same molecule, the “IC50, LTβR NF-κB luciferase reporter, free LIGHT” value in the experiment with His-human LIGHT [9] worked out at 257 pM. Further, the “IC50, LTβR NF-κB luciferase reporter, HEK293-LIGHT cells” value in [10] turned out to be 2280 pM.

B2: hum_LT-m58-2 (antibody, human IgG4, V domains shown)
VH: QVQLVQSGAEVKKPGASVKVSCKASGYTFIDHIMNWVRKAPGQGLEWIGRIYPVSGETNYNQKFMGRVTFTVDRSTSTVYMELSSLRSEDTAVYYCGRGSYYWNAMDYWGQGTLVTVSS
VL: EIVMTQSPATLSVSPGERATLSCKASQSVDFDGDSYMNWYQQKPGQAPRLLIYSASNLESGIPARFSGSGSGTEFTLTISSLQSEDFAVYYCQQSIEDPWTFGQGTKVEIK
notes: humanized from LT-m58
With B2, the “IC50, HVEM NF-κB luciferase reporter, free LIGHT” value with His-human LIGHT [11] came out at 199 pM. Further, the “IC50, LTβR NF-κB luciferase reporter, free LIGHT” value in the experiment with His-human LIGHT [12] is 135 pM. The EC50 with His-human LIGHT [13] amounted to 15.4 pM. Also, the “IC50, LTβR NF-κB luciferase reporter, HEK293-LIGHT cells” value in [14] amounted to 5910 pM. The IC50 with hFc-human LIGHT [15] is 258 pM.

B3: hum_LT-m58-5 (antibody, human IgG4, V domains shown)
VH: QVQLVQSGAEVKKPGASVKVSCKASGYTFIDHIMNWVRKAPGQGLEWIGRIYPVSGETNYNQKFMGRVTFTVDRSTSTVYMELSSLRSEDTAVYYCGRGSYYWNAMDYWGQGTLVTVSS
VL: EIVMTQSPATLSVSPGERATLSCKASQSVDFDGESYMNWYQQKPGQAPRLLIYSASNLESGIPARFSGSGSGTEFTLTISSLQSEDFAVYYCQQSIEDPWTFGQGTKVEIK
notes: humanized from LT-m58
For the molecule B3, the results for the EC50 (with His-human LIGHT [13]; in [16]) were 30.5 pM and 4.43 pM, respectively. Further, the IC50 with hFc-human LIGHT [15] was found to be 746 pM. Also, the binding result with His-mouse LIGHT is on record as “no binding”.

B4: hum_LT-m58-6 (antibody, human IgG4, V domains shown)
VH: QVQLVQSGAEVKKPGASVKVSCKASGYTFIDHIMNWVRKAPGQGLEWMGRIYPVSGETNYNQKFMGRATFTVDRSTSTVYMELSSLRSEDTAVYYCGRGSYYWNAMDYWGQGTLVTVSS
VL: DIVMTQSPDSLAVSLGERATINCKASQSVDFDGESYMNWYQQKPGQPPKLLIYSASNLESGVPDRFSGSGSGTDFTLTISSLQAEDVAVYYCQQSIEDPWTFGQGTKVEIK
notes: humanized from LT-m58
For B4, the EC50 with His-human LIGHT [13] is 34.9 pM; in experiment [16] it was 2.58 pM. This molecule yielded an IC50 with hFc-human LIGHT [15] of 628 pM. Besides, the binding result with His-mouse LIGHT is “no binding”.

B5: LT-m33 (antibody, human IgG4, V domains shown)
VH: QVQLKQSGAELVKPGASVRLSCKTSGYTFTNYYVYWVKQRPGQGLEWIGEINPTNGDPNFNEKFKSKATLTVDKSSSTAYMHLSSLTSEDSAVYYCTRSNWDYGNAMDFWGQGTSVTVSS
VL: DIVMTQSPASLAVSLGQRATISCKASQSVDFDGDGYMNWYQQKPGQPPKLLIYKASHLDSGIPARFSGSGSGTDFTLNIHPVEEEDAATYYCQQSIEDPLTFGDGTRLEIK
In turn, B5 displayed a concentration for a half-maximal effect (EC50) with His-human LIGHT [1] of 0.0221 µg/mL. Further, in experiment [17], the binding result is on record as “binds”. Moreover, the “IC50 … (293T-HVEM-NF-κB-Luc), free LIGHT” value with His-human LIGHT [3] was determined as 0.207 µg/mL. Further, in the experiment with His-human LIGHT [18], the dissociation constant (Kd) (in general, the concentration at which binding is half-saturated) stood at 23.5 pM; the off-rate (koff) (in general, a measure of how fast the partners let go of each other) is 4.07e-05 s⁻¹; the association rate constant (kon) – broadly, the rate constant with which the complex forms – came to 1.73e+06 M⁻¹ s⁻¹.

B6: LT-m31 (antibody, human IgG4, V domains shown)
VH: QIQLLQSGPELEKPGETVKISCKASGYTFTNYGMNWVKQAPGKGLKWMGWINTYTGEPTYADDFKGRFAFSLETSASTAYLQINNLKNEDTATYFCARDNWDGKGMDYWGQGTSVTVSS
VL: DIVLTQSPKFMSTSVGDRVSITCKASQDVDTAVAWYQQKPGHSPKLLLYWASTRHTGVPDRFTGSGSGTDFTLTISNVQSEDLADYFCHQYGSYPLTFGAGTKLELK
In the case of B6, it took 0.0256 µg/mL to reach a half-maximal effect with His-human LIGHT [1] (EC50). Further, the binding result in [17] is “binds”. In addition, the “IC50 … (293T-HVEM-NF-κB-Luc), free LIGHT” value in the experiment with His-human LIGHT [3] was determined as 0.105 µg/mL. Besides, in the experiment with His-human LIGHT [18], the affinity, expressed as Kd, was 39.5 pM; the koff came to 4.03e-05 s⁻¹; the kon came to 1.02e+06 M⁻¹ s⁻¹.
